For this test, the target named is antithrombin III (plasma purified human AT-III), used as the AT-III/unfractionated heparin complex (human), P01008. Put plainly: K0.5: AT-III/UFH titrated against FIXa, 10 s, residual cleavage of Mesyl-D-CHG-Gly-Arg-AMC. To be noted: remark: other sources report otherwise.

Drawing on patent publication US20210238260A1, this text covers IC50 for 1 molecule.

B1: FIXa-R318Y/R338E/R403E/E410N, P00740 47-191; P00740 227-461 (enzyme)
chain 1: YNSGKLEEFVQGNLERECMEEKCSFEEAREVFENTERTTEFWKQYVDGDQCESNPCLNGGSCKDDINSYECWCPFGFEGKNCELDVTCNIKNGRCEQFCKNSADNKVVCSCTEGYRLAENQKSCEPAVPFPCGRVSVSQTSKLTR
chain 2: VVGGEDAKPGQFPWQVVLNGKVDAFCGGSIVNEKWIVTAAHCVETGVKITVVAGEHNIEETEHTEQKRNVIRIIPHHNYNAAINKYNHDIALLELDEPLVLNSYVTPICIADKEYTNIFLKFGSGYVSGWGRVFHKGYSALVLQYLRVPLVDRATCLESTKFTIYNNMFCAGFHEGGRDSCQGDSGGPHVTEVEGTSFLTGIISWGEECAMKGKYGIYTKVSEYVNWIKNKTKLT
Take B1: the IC50 was determined as 5.88 µM.

Broadly, the IC50 is the concentration that inhibits the measured activity by half. Low readings indicate greater potency, high ones weaker potency.
